Results as given in publication PMC7000712, “A kinetic method for measuring agonist efficacy and ligand bias using high resolution biosensors and a kinetic data analysis framework” (Scientific Reports, 2020).
Each block holds one molecule with its values, some of them ahead of it.

Experiments:
angiotensin AT1 receptor [1] = target: T1, angiotensin AT1 receptor (Homo sapiens, UniProt P30556); test: Arrestin-3 (β-arrestin2) mNeonGreen biosensor recruitment, AT1 receptor, HEK 293 T cells (time course); assay type: cell-based
T1 construct: The unmodified receptor can be used, providing estimates of authentic rather than forced coupling to arrestin; host or cells: HEK 293 T cells, BacMam transduction, CMV promoter
T1 sequence (P30556 1-359): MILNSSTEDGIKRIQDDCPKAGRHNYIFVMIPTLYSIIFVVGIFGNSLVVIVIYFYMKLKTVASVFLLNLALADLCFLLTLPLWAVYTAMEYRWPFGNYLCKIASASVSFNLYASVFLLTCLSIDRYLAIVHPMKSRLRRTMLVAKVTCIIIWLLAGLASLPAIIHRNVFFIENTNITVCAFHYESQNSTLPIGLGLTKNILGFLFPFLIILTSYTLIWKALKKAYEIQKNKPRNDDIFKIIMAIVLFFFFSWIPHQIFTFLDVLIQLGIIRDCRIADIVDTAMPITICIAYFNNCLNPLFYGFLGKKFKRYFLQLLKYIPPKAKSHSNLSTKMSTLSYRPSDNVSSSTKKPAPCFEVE
From the text: We and others have developed fluorescent biosensors in which intrinsically fluorescent protein sensors have been incorporated. (Three examples used in this study are R-GECO[22] for Ca^2+, Downward DAG for DAG and cADDis for cAMP[21]). The protein sensors have been engineered to be conformationally-sensitive, such that interaction with the signaling molecule of interest changes the optical properties, enabling the interaction to be detected as a change of fluorescence intensity. Since the proteins are intrinsically fluorescent, no chemical tagging or substrate addition is necessary to generate the optical signal. Here this approach was used to develop a biosensor of receptor-arrestin interaction (Fig. 1a).
We used the kτ method to quantify the kinetics of arrestin recruitment of five AT1 receptor ligands with known varying degrees of arrestin recruitment and bias. The method for quantifying kτ is as follows (illustrated schematically in Supplementary Fig. S5). […] From these fits the fitted parameter values were taken for Plateau and kobs. These values were then multiplied together. […] The data were then fit to the sigmoid curve equation, for example the “log(agonist) vs. response–Variable slope” equation in Prism[46]. From this fit kτ was obtained - it is the value of the asymptote. More precisely, kτ is the Plateau x kobs value for a maximally-effective concentration of ligand.
All that is required is a time course of response measurement at a single, maximally-stimulating concentration of ligand (maximally-stimulating at all time points). […] The data were fit to the association exponential equation to determine Plateau and kobs. kτ was then calculated - it is the Plateau multiplied by kobs for a maximally-stimulating concentration of ligand, as explained in the Appendix.
The first biosensors that positioned analyte binding domains in this position used a circularly permuted version of the fluorescent protein, and include the GCaMP and GECO Ca^2+ sensors, the upward and downward DAG sensors, and the caDDis cAMP sensor[21],[22]. More recently it has become clearer that if the termini of the analyte binding domain are close to one another, then the entire binding domain can be inserted into the 7th stave of the fluorescent protein without having to circularly permute the fluorescent protein[60].
HEK 293 T cells were cultured in Eagle’s minimum essential media (EMEM) supplemented with 10% fetal bovine serum (FBS) and penicillin-streptomycin at 37 °C in 5% CO2. For BacMam transduction, cells were resuspended in media at a density of 52,000 cells per 100 μL. […] For each experiment 4.24 × 10^8 viral genes of arrestin virus were added to each well. For multiplex experiments, 4.79 × 10^8 viral genes of the Red DAG sensor or 6.18 × 10^8. Viral genes of the Red cADDis (cAMP) sensor were added with the arrestin sensor. For experiments with the R-GECO sensor, 8.46 × 10^8 viral genes were added to each well. The viruses carrying the AT1 and V2 receptors were added such that 2.12 × 10^8 and 3.04 × 10^8 viral genes went into each well, respectively. For the β2-adrenoceptor experiment, 4.28 × 10^8 viral genes for the receptor and 2.13 × 10^8 viral genes of GPCR kinase 2 were added to each well.

angiotensin AT1 receptor [2] = target: T1, angiotensin AT1 receptor; test: Ca^2+ mobilization, R-GECO sensor, AT1 receptor, HEK 293 T cells; assay type: cell-based; details: 32 μM; mean kτ of ligand divided by that for AngII
From the text: Biased agonism quantification relates the capacity of a ligand to activate one pathway relative to one or more other pathways[9]–[12]. Numerous methods and scales have been developed and successfully applied[8],[47],[53]–[59]. One approach is to compare ligand efficacy, i.e. the capacity of the agonist-occupied receptor to generate the signal. kτ provides such an efficacy value, being the initial rate of signal generation by the agonist-occupied receptor. Here kτ is used to assess signaling bias of the AT1 receptor ligands described above. […] In this study, G-protein signaling and arrestin recruitment was measured using the same fluorescent biosensor assay modality, enabling near-identical conditions to be employed in comparing the pathways. The Gq pathway was quantified at the level of diacylglycerol using the Red Downward DAG sensor[21] (Fig. 5b), and, one step downstream, Ca^2+ mobilization measured using the R-GECO sensor[22] […]
HEK 293 T cells were cultured in Eagle’s minimum essential media (EMEM) supplemented with 10% fetal bovine serum (FBS) and penicillin-streptomycin at 37 °C in 5% CO2. […] Thirty minutes prior to fluorescence plate reader or imaging experiments, the media in each well was replaced with 150 μL of Dulbecco’s phosphate buffered saline (DPBS) supplemented with Ca^2+ (0.9 mM) and Mg^2+ (0.5 mM). […]

β2-adrenoceptor = test: Arrestin sensor response via the β2-adrenoceptor; assay type: cell-based; details: 10 μM isoproterenol; cells also transduced with GPCR kinase 2; n = 4; Biotek Synergy Mx
Procedure: HEK 293 T cells were cultured in Eagle’s minimum essential media (EMEM) supplemented with 10% fetal bovine serum (FBS) and penicillin-streptomycin at 37 °C in 5% CO2. For BacMam transduction, cells were resuspended in media at a density of 52,000 cells per 100 μL. […] For each experiment 4.24 × 10^8 viral genes of arrestin virus were added to each well. For multiplex experiments, 4.79 × 10^8 viral genes of the Red DAG sensor or 6.18 × 10^8. Viral genes of the Red cADDis (cAMP) sensor were added with the arrestin sensor. For experiments with the R-GECO sensor, 8.46 × 10^8 viral genes were added to each well. The viruses carrying the AT1 and V2 receptors were added such that 2.12 × 10^8 and 3.04 × 10^8 viral genes went into each well, respectively. For the β2-adrenoceptor experiment, 4.28 × 10^8 viral genes for the receptor and 2.13 × 10^8 viral genes of GPCR kinase 2 were added to each well. The cell/transduction mixture was then seeded into 96-well plates and incubated for ~24 hours at 37 °C in 5% CO2. Thirty minutes prior to fluorescence plate reader or imaging experiments, the media in each well was replaced with 150 μL of Dulbecco’s phosphate buffered saline (DPBS) supplemented with Ca^2+ (0.9 mM) and Mg^2+ (0.5 mM).
Fluorescence plate reader experiments were performed on the BioTek Synergy Mx (BioTek, Winooski, VT) and BMG CLARIOstar (BMG Labtech, Cary, NC) in 96 well plates.

angiotensin AT1 receptor [3] = target: angiotensin AT1 receptor (UniProt P30556)
angiotensin AT1 receptor [4] = target: angiotensin AT1 receptor (UniProt P30556); test: conformation-sensitive fluorescent arrestin biosensor in live cells; as a6, 32 μM SII
angiotensin AT1 receptor [5] = target: angiotensin AT1 receptor (UniProt P30556); test: conformation-sensitive fluorescent arrestin biosensor in live cells; as a6, 32 μM TRV120026
angiotensin AT1 receptor [6] = target: angiotensin AT1 receptor (UniProt P30556); test: conformation-sensitive fluorescent arrestin biosensor in live cells; as a6, 32 μM TRV120045
angiotensin AT1 receptor [7] = target: angiotensin AT1 receptor (UniProt P30556); test: conformation-sensitive fluorescent arrestin biosensor in live cells; as a6, 32 μM TRV120055
angiotensin AT1 receptor [8] = target: angiotensin AT1 receptor (UniProt P30556); test: conformation-sensitive fluorescent arrestin biosensor in live cells; as a1, concentration-response with the agonist SII
angiotensin AT1 receptor [9] = target: angiotensin AT1 receptor (UniProt P30556); test: conformation-sensitive fluorescent arrestin biosensor in live cells; as a1, concentration-response with the agonist TRV026 (TRV120026)
angiotensin AT1 receptor [10] = target: angiotensin AT1 receptor (UniProt P30556); test: conformation-sensitive fluorescent arrestin biosensor in live cells; as a1, concentration-response with the agonist TRV045 (TRV120045)
angiotensin AT1 receptor [11] = target: angiotensin AT1 receptor (UniProt P30556); test: conformation-sensitive fluorescent arrestin biosensor in live cells; as a1, concentration-response with the agonist TRV055 (TRV120055)
angiotensin AT1 receptor [12] = target: angiotensin AT1 receptor (UniProt P30556); test: conformation-sensitive fluorescent arrestin biosensor in live cells; HEK 293 T cells with sensor and AT1 receptor; AngII 10 nM-32 μM; time courses fit to the association exponential, Plateau x kobs against concentration fit to a sigmoid, kτ is its top; DPBS with Ca2+ and Mg2+; Biotek Synergy Mx
angiotensin AT1 receptor [13] = target: angiotensin AT1 receptor (UniProt P30556); test: conformation-sensitive fluorescent arrestin biosensor in live cells; HEK 293 T cells with sensor and AT1 receptor; single maximally-stimulating concentration, 32 μM AngII; time course fit to the association exponential, kτ = Plateau x kobs; ΔF/F normalised to baseline; Biotek Synergy Mx (Fig. 5a) or BMG CLARIOstar (Fig. 1b)
[14] = system: parathyroid hormone 1 (PTH1) receptor; details: endosomal compartment; cited from earlier work
From the text: The kinetics/dynamics of G-protein-coupled receptor (GPCR) signaling is of increasing interest in elaborating the biology and therapeutic potential of these receptors[1]–[3]. The time frame of GPCR signal transduction is dependent on the signaling pathway, regulation of signaling mechanism, and location of the receptor in the cell (spatiotemporal signaling). Temporal dynamics of signaling are being elucidated and applied to develop new therapeutics. For example, the parathyroid hormone 1 (PTH1) receptor can signal persistently over time after partitioning into the endosomal compartment. Thi ...

Molecule: CC[C@H](C)[C@H](NC(=O)[C@@H]1CCCN1C(=O)[C@H](Cc1c[nH]cn1)NC(=O)[C@@H](NC(=O)[C@@H](NC(=O)[C@@H](NC(=O)[C@H](CCCNC(=N)N)NC(=O)CNC)C(C)C)[C@@H](C)CC)[C@@H](C)CC)C(=O)O [SII, [sarcosine^1, Ile^4, Ile^8]AngII]
kτ (% AngII), arrestin (single concentration) (angiotensin AT1 receptor [1]; 32 μM, mean kτ of ligand divided by that for AngII): 49 % AngII
Emax, 1 minute time point (angiotensin AT1 receptor [1]; 1 min (rise phase), sigmoid fit, representative experiments): 64 % Ang II
Emax, 20 minute time point (angiotensin AT1 receptor [1]; 20 min (plateau), sigmoid fit, representative experiments): 88 % Ang II
EC50 (angiotensin AT1 receptor [1]; EC50, 1 minute time point, 1 min (rise phase), sigmoid fit, representative experiments): 0.62 µM
EC50 (angiotensin AT1 receptor [1]; EC50, 20 minute time point, 20 min (plateau), sigmoid fit, representative experiments): 0.21 µM
Kd (angiotensin AT1 receptor [1]; calculated from the mean pKA value, L50 of Plateau × kobs vs concentration curve, read-out: KA): 1.1 µM
kτ (% AngII), arrestin (concentration-response) (angiotensin AT1 receptor [1]; concentration-response method, mean kτ of ligand divided by that for AngII): 48 % AngII
Emax, kinetic model initial rate (angiotensin AT1 receptor [1]; concentration-response of the initial rate, repeated from Table 1 in Supplementary Table S2): 48 % Ang II
kτ (% AngII), calcium (angiotensin AT1 receptor [2]): 12 % AngII

Molecule: CC(C)NCC(O)c1ccc(O)c(O)c1 (stereo not shown) [isoproterenol]
ΔF/F, β2-adrenoceptor (β2-adrenoceptor): 0.84

Molecule: parathyroid hormone [PTH]
persistent signaling (in words) [14]: persistent signaling

The remaining lines, values ahead:

KA from the operational model fit of the arrestin sensor concentration-response at the single time point 1 min (angiotensin AT1 receptor [3]): 1200 nM
KA from the operational model fit of the arrestin sensor concentration-response at the single time point 20 min (angiotensin AT1 receptor [3]): 530 nM
Molecule: [sarcosine^1, Ile^4, Ile^8]AngII (peptide)

kτ (initial rate of arrestin recruitment) with 32 μM SII (angiotensin AT1 receptor [4]): 0.2 NFU.min^-1
kτ (initial rate of arrestin recruitment) with 32 μM TRV120026 (angiotensin AT1 receptor [5]): 0.25 NFU.min^-1
kτ (initial rate of arrestin recruitment) with 32 μM TRV120045 (angiotensin AT1 receptor [6]): 0.38 NFU.min^-1
kτ (initial rate of arrestin recruitment) with 32 μM TRV120055 (angiotensin AT1 receptor [7]): 0.37 NFU.min^-1
kτ (initial rate of arrestin recruitment) with SII (angiotensin AT1 receptor [8]): 0.2 NFU.min^-1
kτ (initial rate of arrestin recruitment) with TRV026 (angiotensin AT1 receptor [9]): 0.25 NFU.min^-1
kτ (initial rate of arrestin recruitment) with TRV045 (angiotensin AT1 receptor [10]): 0.36 NFU.min^-1
kτ (initial rate of arrestin recruitment) with TRV055 (angiotensin AT1 receptor [11]): 0.38 NFU.min^-1
kτ (initial rate of arrestin recruitment) with AngII (angiotensin AT1 receptor [12]): 0.41 NFU.min^-1
kτ (initial rate of arrestin recruitment) with 32 μM AngII (angiotensin AT1 receptor [13]): 0.4 NFU.min^-1
t1/2 of arrestin recruitment (0.693/kobs) with 32 μM AngII (angiotensin AT1 receptor [13]): 45 s
ΔF/F (fluorescence after agonist divided by baseline) with 32 µM AngII (angiotensin AT1 receptor [13]): 0.56
Molecule: arrestin-3 (β-arrestin2) fluorescent biosensor incorporating mNeonGreen (from UniProt P32121 1-409)
